Assay results published in patent US7888090B2, “Mutants of O6-alkylguanine-DNA alkyltransferase” (Ecole Polytechnique Federale de Lausanne, priority 2004, dated 2011).

What was measured:
[1] = Activity assay with biotinylated O^6-benzylguanine (BG-Bt), Western blotting; format: biochemical; conditions: statement in words
How it was run: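 Purified mutant GST-AGT (0.2 μM) reacted with 1 μM biotinylated O^6-benzylguanine in 50 mM HEPES pH 7.2, 1 mM DTT at room temperature. Time-point aliquots quenched with O^6-benzylguanine in SDS buffer. Biotinylated protein detected by Western blot with neutravidin-peroxidase, band intensity quantified.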

[2] = Solubility in vitro after overnight incubation; format: physicochemical; conditions: compared to wild type AGT
Description: The in vitro solubility of wild type AGT and the AGT mutant is measured by determining the amount of protein that remains in the soluble fraction after overnight incubation of purified samples at 4° C. or up to 37° C. at one or several concentrations established in a suitable buffer (e.g. 100 mM NaCl, 20 mM Tris, pH 8.0, 20% glycerol, 1 mM DTT).
The solubility of AGTM or an AGTM fusion protein in vitro is measured by determining the amount of protein that remains in the soluble fraction after overnight incubation of purified samples at 4 or up to 37° C. at one or several concentrations established in a suitable buffer (e.g. 100 mM NaCl, 20 mM Tris, pH 8.0, 20% Glycerol), and it is compared to that of wild type AGT or to known AGT mutants such as “PGEG-hAGT” (Juillerat et al., Chem Biol 10:313-317, 2003).

B1: AGTM: AGT mutant Cys62Ala, Gln115Ser, Gln116His, Lys125Ala, Ala127Thr, Arg128Ala, Gly131Lys, Gly132Thr, Met134Leu, Arg135Ser, Cys150Asn, Ser151Ile, Ser152Asn, Asn157Gly, Ser159Glu, truncated after … (protein, UniProt P16455 1-207, looked up, variant C62A Q115S Q116H K125A A127T R128A G131K G132T M134L R135S C150N S151I S152N N157G S159E del183-207)
Methylated-DNA--protein-cystei …: MDKDCEMKRTTLDSPLGKLELSGCEQGLHEIKLLGKGTSAADAVEVPAPAAVLGGPEPLMQATAWLNAYFHQPEAIEEFPVPALHHPVFQQESFTRQVLWKLLKVVKFGEVISYSHLAALAGNPAATAAVKTALSGNPVPILIPCHRVVNINGAVGGYEGGLAVKEWLLAHEGHRLGKPGLG
modifications: His tag
activity towards O^6-benzylguanine substrates [1]: retains the reactivity
activity towards O^6-benzylguanine substrates ([1]; Gln115Ser, Gln116His, Lys125Ala, Ala127Thr, Arg128Ala, Gly131Lys, Gly1): increased reactivity
solubility in vitro [2]: at least fourfold increased
